In patent US20170313754A1 (PROTAGONIST THERAPEUTICS, published 2017):
Bridge positions count the residues as written; N and C are the ends. Square brackets hold non-standard residues; d marks the D form. * marks the point of attachment. NMeW = CN[C@@H](Cc1c[nH]c2ccccc12)C(=O)O; Isovaleryl = CC(C)CC(=O)*; Sar = CNCC(=O)O

T1: human ferroportin (SLC40A1) fused in frame with GFP, stably expressed in HEK293 cells (human, UniProt Q9NP59 1-571)
T1 sequence (looked up): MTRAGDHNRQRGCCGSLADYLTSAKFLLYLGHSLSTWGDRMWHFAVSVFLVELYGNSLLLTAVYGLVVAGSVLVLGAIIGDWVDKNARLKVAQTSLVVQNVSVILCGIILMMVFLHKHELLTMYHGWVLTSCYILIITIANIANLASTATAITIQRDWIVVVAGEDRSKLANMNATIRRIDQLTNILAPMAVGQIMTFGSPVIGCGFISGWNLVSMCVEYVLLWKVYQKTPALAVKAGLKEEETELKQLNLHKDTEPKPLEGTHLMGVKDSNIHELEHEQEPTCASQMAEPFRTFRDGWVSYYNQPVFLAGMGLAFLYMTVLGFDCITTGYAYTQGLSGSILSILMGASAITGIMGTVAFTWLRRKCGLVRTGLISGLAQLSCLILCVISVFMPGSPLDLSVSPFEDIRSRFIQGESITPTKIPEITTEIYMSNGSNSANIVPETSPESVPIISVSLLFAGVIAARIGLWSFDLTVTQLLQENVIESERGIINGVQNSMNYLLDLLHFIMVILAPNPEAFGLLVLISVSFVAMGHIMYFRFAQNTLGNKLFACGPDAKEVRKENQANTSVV


Biological target: T1, human ferroportin (SLC40A1) fused in …
Test: cell-based or functional assay

Binder	Potency EC50 (nM), ferroportin-GFP internalization/degradation [nM]	Potency: percent at the stated concentration, ferroportin-GFP internalization/degradation
H-DTHFVCIIF-NH2 [Hy-DTHFVCIIF-NH2]	–	50 % at 10 uM
H-DTHFPICIFGPHRSKGWVCM-NH2 (disulfide 7-19 (inferred)) [Hy-DTHFPICIFGPHRSKGWVCM-NH2]	149	–
H-DTHFPIAICI-NH2 [Hy-DTHFPIAICI-NH2]	> 10000	–
H-DTHFPCIIFGPRSRGHVCK-NH2 (not fully specified (bridges); printed as Hy-DTHFPCIIFGPRSRGHVCK-NH2; cysteine pairing not given here) [Hy-DTHFPCIIFGPRSRGHVCK-NH2]	> 1000	–
H-DTHFPIICI-NH2 [Hy-DTHFPIICI-NH2]	> 10000	–
H-DTHFPCIIFGPRSKGWAVCYW-NH2 (not fully specified (bridges); printed as Hy-DTHFPCIIFGPRSKGWAVCYW-NH2; cysteine pairing not given here) [Hy-DTHFPCIIFGPRSKGWAVCYW-NH2]	197	–
Isovaleryl-DTHFPCIIFGPRSKG[NMeW]VC-NH2 (disulfide 6-18 (inferred)) [Isovaleric acid-DTHFPCIIFGPRSKG-[N-MeTrp]-VC-NH2]	32	–
H-DTHFPCIIY-NH2 [Hy-DTHFPCIIY-NH2]	–	75 % at 10 uM
H-ADHFPCIIF-NH2 [Hy-ADHFPCIIF-NH2]	> 1000	–
H-ATHFPCIIF-NH2 [Hy-ATHFPCIIF-NH2]	> 1000	–
DTHFPCIIFXPHSKGWVC (N-terminal isovaleric acid; Sarc at position 10; N-MeTrp at position 16; C-terminal amide) [Isovaleric acid-DTHFPCIIF-[Sarc]-PHSKG-[N-MeTrp]-VC-NH2]	9	–
H-DTHFPCILY-NH2 [Hy-DTHFPCILY-NH2]	–	85 % at 1 uM
H-DTHFPCIIFGPRSKGWVAC-NH2 (not fully specified (bridges); printed as Hy-DTHFPCIIFGPRSKGWVAC-NH2; cysteine pairing not given here) [Hy-DTHFPCIIFGPRSKGWVAC-NH2]	281	–
H-DTHFPCIIFGGPRSKGWDCK-NH2 (disulfide 6-19 (inferred)) [Hy-DTHFPCIIFGGPRSKGWDCK-NH2]	679	–
H-DTHFPCIDFGPRSKGWVCK-NH2 (disulfide 6-18 (inferred)) [Hy-DTHFPCIDFGPRSKGWVCK-NH2]	> 1000	–
H-DTHFPCIIFGPRSKGWNCK-NH2 (not fully specified (bridges); printed as Hy-DTHFPCIIFGPRSKGWNCK-NH2; cysteine pairing not given here) [Hy-DTHFPCIIFGPRSKGWNCK-NH2]	> 1000	–
H-DTHKPCIIF-NH2 [Hy-DTHKPCIIF-NH2]	–	45 % at 10 uM

Results, then the binder that gave them:

Potency EC50 (nM), ferroportin-GFP internalization/degradation [nM]	Potency: percent at the stated concentration, ferroportin-GFP internalization/degradation	Binder
10	–	DTHFPCIIFXPRSKGWVC (N-terminal isovaleric acid; Sarc at position 10; N-MeTrp at position 16; C-terminal amide) [Isovaleric acid-DTHFPCIIF-[Sarc]-PRSKG-[N-MeTrp]-VC-NH2]
> 1000	–	H-DTHFPCIIFAC-NH2 (disulfide 6-11 (inferred)) [Hy-DTHFPCIIFAC-NH2]
520	–	H-DTHFPCIIFGGPRSRGWVCK-NH2 (not fully specified (bridges); printed as Hy-DTHFPCIIFGGPRSRGWVCK-NH2; cysteine pairing not given here) [Hy-DTHFPCIIFGGPRSRGWVCK-NH2]
–	8 % at 1 uM	H-DTHFPCIEY-NH2 [Hy-DTHFPCIEY-NH2]
46	–	Isovaleryl-DTHFPCIKFEPRSKEWVCK-OH (not fully specified (bridges); cysteine pairing not given here) [Isovaleric acid-DTHFPCIKFEPRSKEWVCK-OH]
57	–	Isovaleryl-DTHFPCIFEPRSKGTCK-NH2 (disulfide 6-16 (inferred)) [Isovaleric acid-DTHFPCIFEPRSKGTCK-NH2]
46	–	Isovaleryl-DTHFPCIKFKPHSKEWVCE-NH2 (disulfide 6-18 (inferred)) [Isovaleric acid-DTHFPCIKFKPHSKEWVCE-NH2]
404	–	H-DTHFPCIIFGGPRSKGWNCK-NH2 (not fully specified (bridges); printed as Hy-DTHFPCIIFGGPRSKGWNCK-NH2; cysteine pairing not given here) [Hy-DTHFPCIIFGGPRSKGWNCK-NH2]
–	64 % at 10 uM	H-DPHFPCIIF-NH2 [Hy-DPHFPCIIF-NH2]
> 10000	–	H-DTHFP[dC]IIFGPRSKGWVA[dC]-NH2 (disulfide 6-19 (inferred)) [Hy-DTHFP-[(D)Cys]-IIFGPRSKGWVA-[(D)Cys]-NH2]
> 1000	–	Isovaleryl-DTHFECIIFGPRSKGWVCK-NH2 (not fully specified (bridges); cysteine pairing not given here) [Isovaleric acid-DTHFECIIFGPRSKGWVCK-NH2]
–	23 % at 1 uM	H-DTHFPCIIT-NH2 [Hy-DTHFPCIIT-NH2]
15	–	Isovaleryl-DTHFPCIIFEPRSKHWVCK-NH2 (disulfide 6-18 (inferred)) [Isovaleric acid-DTHFPCIIFEPRSKHWVCK-NH2]
–	59 % at 1 uM	H-DTHFPCIIFAA-NH2 [Hy-DTHFPCIIFAA-NH2]
9	–	Isovaleryl-DTHFPCIKFEPRSKLWVCK-NH2 (disulfide 6-18 (inferred)) [Isovaleric acid-DTHFPCIKFEPRSKLWVCK-NH2]
> 10000	–	H-DTHFPCIIFGPRSKGWVACY-NH2 (not fully specified (bridges); printed as Hy-DTHFPCIIFGPRSKGWVACY-NH2; cysteine pairing not given here) [Hy-DTHFPCIIFGPRSKGWVACY-NH2]
20	–	Isovaleryl-DTHFPCIKFEPRSKEWVCK-NH2 (disulfide 6-18 (inferred)) [Isovaleric acid-DTHFPCIKFEPRSKEWVCK-NH2]
> 1000	–	H-DTHFPCINFGPRSKGWVCK-NH2 (disulfide 6-18 (inferred)) [Hy-DTHFPCINFGPRSKGWVCK-NH2]
> 10000	–	H-DTHCPIAIF-NH2 [Hy-DTHCPIAIF-NH2]
10	–	Isovaleryl-DTHFPCIIFEPRSKFWVCK-NH2 (disulfide 6-18 (inferred)) [Isovaleric acid-DTHFPCIIFEPRSKFWVCK-NH2]
19	–	Isovaleryl-DTHFPCIIFEPRSKEWVCK-NH2 (disulfide 6-18 (inferred)) [Isovaleric acid-DTHFPCIIFEPRSKEWVCK-NH2]
28	–	Isovaleryl-DTHFPCIKFEPHSK[Sar]CK-NH2 (not fully specified (bridges); cysteine pairing not given here) [Isovaleric acid-DTHFPCIKFEPHSK-[Sarc]-CK-NH2]
6400	–	H-DTHFPCIIFKC-NH2 (disulfide 6-11 (inferred)) [Hy-DTHFPCIIFKC-NH2]
7	–	Isovaleryl-DTHFPCIIFEPRSKLWVCK-NH2 (disulfide 6-18 (inferred)) [Isovaleric acid-DTHFPCIIFEPRSKLWVCK-NH2]
> 10000	–	H-DTHICIAIF-NH2 [Hy-DTHICIAIF-NH2]
